Measured values from article PMC6127644.
Values belong to the molecule of their own block, whether it stands above or below them.

Tests used:
[1] = target: NMDAR reconstituted from GluN1Rluc and GluN2B (human) (UniProt Q05586); experiment: FRET or BRET; BRET^2 saturation in HEK-293T cells: constant GluN1-RLuc and GluN2B cDNA, increasing NCS1-GFP^2 cDNA; 5 uM Deep Blue C
[2] = target: endogenous NMDAR of mouse primary neurons and microglia (mouse (endogenous in primary neurons and microglia)) (UniProt P35438); experiment: proximity ligation; in situ PLA on primary neurons from non-transgenic control embryos; percent of cells with red dots and dots per cell counted (Figure 5C,D)
[3] = target: endogenous NMDAR of mouse primary neurons and microglia (mouse (endogenous in primary neurons and microglia)) (UniProt P35438); experiment: proximity ligation; in situ PLA on primary microglia from APP_(Sw,Ind) transgenic mice; percent of cells with red dots and dots per cell counted (Figure 6B,C)
[4] = target: endogenous NMDAR of mouse primary neurons and microglia (mouse (endogenous in primary neurons and microglia)) (UniProt P35438); experiment: proximity ligation; in situ PLA on primary microglia from non-transgenic control mice; percent of cells with red dots and dots per cell counted (Figure 6B,C)
[5] = target: endogenous NMDAR of mouse primary neurons and microglia (mouse (endogenous in primary neurons and microglia)) (UniProt P35438); experiment: proximity ligation; in situ PLA on primary neurons from APP_(Sw,Ind) transgenic embryos; percent of cells with red dots and dots per cell counted (Figure 5C,D)
[6] = target: GluN1Rluc expressed without GluN2 (human) (UniProt Q05586); experiment: FRET or BRET; BRET^1 saturation in HEK-293T cells: constant GluN1Rluc cDNA (0.3 ug) without GluN2, increasing cDNA of the YFP-fused calcium sensor

Molecule: endogenous NCS1 of mouse primary neurons and microglia (from UniProt Q8BNY6 1-190) (natural protein)
PLA clusters per cell (clusters per cell) [2]: 2 | percent of neurons with PLA complexes [2]: 21% | PLA clusters per cell (clusters per cell) [5]: 5.5 | percent of neurons with PLA complexes [5]: 68%

Molecule: NCS1YFP fusion protein (from UniProt P62166 1-190) (natural protein)
BRET50 [6]: 30

Next, values leading:

BRET50 [1]: 35
Molecule: NCS1GFP^2 fusion protein (from UniProt P62166 1-190) (natural protein)

percent of neurons with PLA complexes [2]: 77% | PLA red dots per cell containing dots (red dots/cell containing dots) [3]: 6 | percent of microglial cells with PLA complexes [3]: 65% | PLA red dots per cell containing dots (red dots/cell containing dots) [4]: 3 | percent of microglial cells with PLA complexes [4]: 35%
Molecule: endogenous calmodulin of mouse primary neurons and microglia (from UniProt P0DP26 1-149) (natural protein)

BRET50 [6]: 3.5
Molecule: CaM-YFP fusion protein (from UniProt P0DP23 1-149) (natural protein)

percent of neurons with PLA complexes [2]: 14%
B1: endogenous calneuron-1 of mouse primary neurons (natural protein)
chain: MRLPEQPGDGKPENETKGDQETPERGEEPRRSPAPDFPTWEKMPFHHVTAGLLYKGNYLNRSLSAGSDSEQLANISVEELDEIREAFRVLDRDGNGFISKQELGMAMRSLGYMPSEVELAIIMQRLDMDGDGQVDFDEFMTILGPKLVSSEGRDGFLGNTIDSIFWQFDMQRVTLEELKHILYHAFRDHLTMKDIENIIINEEESLNETSGNCQTEFEGVHSQKQNRQTCVRKSLICAFAMAFIISVMLIAANQILRSGME
